The supplement of paper PMC9732359
± gives the uncertainty stated by the source.

Assay: protein stability index of a GFP-peptide fusion (yeast GPS) (PSI 1-4); higher = more stable; sorted into four equal gates, so the index is relative within each strain
Outline: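 The protein stability index combines read frequencies across sorting gates, each weighted by its gate number and then summed. To obtain those frequencies, a pooled yeast library of GFP fusions to tiled 17-residue yeast protein peptides, on a plasmid also expressing Cherry, was grown to mid-log phase in leucine-free medium. The cells were sorted into four equal gates by GFP/Cherry ratio before plasmid amplification by PCR and Illumina sequencing.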

Sequence | protein stability index (doa10∆) | protein stability index (pdr5∆) | protein stability index (san1∆) | protein stability index (ubr1∆)
DIGKEMSLRHFGHLMHY [RPN1] | 1.26 ± 0.049 | 1.25 ± 0.041 | 1.23 ± 0.074 | 1.08 ± 0.037
DIIVAIKIFELKLPADA [IRR1] | 1.54 ± 0.078 | 1.21 ± 0.071 | 1.59 ± 0.14 | 1.83 ± 0.052
DINQAKDFIENVNNRFD [BRN1] | 3.25 ± 0.12 | 3.23 ± 0.086 | 3.3 ± 0.067 | 3.08 ± 0.056
DISLKADLERFFLSIYF [YJL039C/NUP192] | 3.24 ± 0.13 | 2.79 ± 0.092 | 2.96 ± 0.099 | 2.94 ± 0.044
DITGIRDVSDDVFDTLA [GRR1] | 3.02 ± 0.12 | 3.04 ± 0.07 | 2.95 ± 0.075 | 2.97 ± 0.067
DKDSEELDSKTRKILEI [MED4] | 2.98 ± 0.093 | 2.65 ± 0.091 | 3.11 ± 0.061 | 2.98 ± 0.064
DKFFNEVNKSELYLTAE [SIR3] | 3.43 ± 0.13 | 3.55 ± 0.13 | 3.23 ± 0.085 | 3.58 ± 0.12
DKIPLNYAMTRNILHNT [SRB5] | 1.82 ± 0.057 | 2.34 ± 0.057 | 1.83 ± 0.081 | 1.93 ± 0.035
DKLKVYKQAMNETSEQL [SNF5] | 3.17 ± 0.11 | 3.39 ± 0.15 | 3.13 ± 0.12 | 3.11 ± 0.11
DKLTRVHDKIWCCRSGS [PRE3] | 2.78 ± 0.061 | 2.68 ± 0.068 | 2.67 ± 0.056 | 2.9 ± 0.032
DKNELQQMIITRLKSLL [SIR3] | 2.23 ± 0.058 | 2.04 ± 0.05 | 2.12 ± 0.063 | 2.08 ± 0.037
DKRIVISIDSWPTTHKY [DIS3] | 1.92 ± 0.065 | 1.52 ± 0.11 | 1.99 ± 0.16 | 2.06 ± 0.087
DKVTSQAVNNLIKTLST [RPP1] | 2.53 ± 0.059 | 2.89 ± 0.078 | 2.47 ± 0.074 | 2.62 ± 0.048
DLALKMGVPIYGIVAMA [FAS2] | 1.85 ± 0.27 | 1.17 ± 0.093 | 1.36 ± 0.28 | 1.18 ± 0.078
DLEGRANIFRIHSKSMS [RPT1] | – | – | 3.21 ± 0.25 | –
DLEKLLEMSTEDFVKLA [RPS15] | 3.11 ± 0.15 | 3.13 ± 0.12 | 3.44 ± 0.12 | 3.28 ± 0.08
DLLRSQLTSLEKDCSLR [YIL149C/MLP2] | 2.94 ± 0.061 | 3.05 ± 0.063 | 2.33 ± 0.077 | 3.03 ± 0.042
DLQRLKPLGLDRYGNRY [ITC1] | – | – | – | 3.05 ± 0.13
DLTMGQVGERIKQTFKN [RPO21] | 3.31 ± 0.15 | 2.81 ± 0.19 | 3.25 ± 0.073 | 3.23 ± 0.11
DLTRVYKAISAQADKQD [FAS2] | 1.54 ± 0.054 | 1.72 ± 0.049 | 1.74 ± 0.1 | 1.75 ± 0.044
DLVKPKNPKFSNAFYSV [SMC4] | 2.43 ± 0.062 | 2.42 ± 0.064 | 2.26 ± 0.074 | 2.82 ± 0.067
DLWNNFGNIMDNLLEMS [RRP6] | 3.42 ± 0.094 | 2.88 ± 0.076 | 3.21 ± 0.058 | 2.95 ± 0.11
DMIKCFLPKLNSVRNSL [NUT1] | 2.52 ± 0.053 | 2.48 ± 0.089 | 2.47 ± 0.075 | 2.18 ± 0.035
DMLLHKYYIVSSSKSMI [SRB8] | 1.26 ± 0.074 | 1.47 ± 0.062 | 1.7 ± 0.14 | 1.61 ± 0.079
DMSKILVDQGFNYSGKD [RET1] | 3.36 ± 0.073 | 3.31 ± 0.065 | 3.31 ± 0.04 | 3.49 ± 0.042
DMVKLDINPPLVFILAV [RRP42] | 2.69 ± 0.068 | 2.3 ± 0.043 | 2.2 ± 0.07 | 2.19 ± 0.035

Sequence | protein stability index (doa10∆) | protein stability index (pdr5∆) | protein stability index (san1∆) | protein stability index (ubr1∆)
DNEDSDNLFGETESSVS [SWI3] | 3.48 ± 0.14 | 3.07 ± 0.081 | – | 2.93 ± 0.085
DNETKAMLINLILRDFL [RPN3] | 2.55 ± 0.095 | 2.66 ± 0.087 | 2.58 ± 0.069 | 2.81 ± 0.075
DNLGQTKIIMATNRPDT [RPT4] | 2.76 ± 0.084 | 2.56 ± 0.1 | 2.79 ± 0.079 | 2.67 ± 0.079
DNNTASNMLGSNEDVMM [RPB3] | 2.04 ± 0.25 | 2.43 ± 0.17 | 2.31 ± 0.25 | –
DNVVRFLNEARDKAGRL [RPO21] | 2.48 ± 0.063 | 1.61 ± 0.056 | 2.56 ± 0.14 | 1.76 ± 0.053
DPFSIYGFSNKEYISRL [SNF5] | 1.89 ± 0.066 | 2.39 ± 0.15 | 2.69 ± 0.071 | 2.34 ± 0.075
DPLLAGLGETSGDNHTQ [RPT4] | 2.77 ± 0.26 | 3.43 ± 0.21 | 3.5 ± 0.19 | 3.25 ± 0.16
DPLRIAMKELAEKKIPL [RPO26] | – | 3.26 ± 0.18 | – | –
DPNNPVDFDGLDIKRVG [SNF12] | 3.5 ± 0.087 | 3.32 ± 0.086 | 3.32 ± 0.097 | 3.25 ± 0.063
DPSRELNVIIDQLAVSP [YCS4] | 2.79 ± 0.055 | 3.04 ± 0.062 | 2.72 ± 0.053 | 2.67 ± 0.05
DPTKVTEFEFYLLEELE [SSN8] | 3.19 ± 0.065 | 3.28 ± 0.058 | 3.21 ± 0.068 | 3.25 ± 0.049
DPVSGAILVPMTVNDQP [YJR042W/NUP85] | 1.95 ± 0.18 | 2.03 ± 0.16 | 2.28 ± 0.087 | 2.4 ± 0.085
DQAELPNNASSHISASA [SNF2] | 1.79 ± 0.085 | 2.35 ± 0.068 | 2.1 ± 0.13 | 2.35 ± 0.063
DQAIVTETKRLVVIRFG [DIB1] | 2 ± 0.071 | 2.23 ± 0.062 | 2.03 ± 0.1 | 2.45 ± 0.067
DQGNGWLYVYETPNQDA [RPN6] | 2.36 ± 0.061 | 2.01 ± 0.051 | 2.23 ± 0.067 | 2.38 ± 0.037
DQKETKKGESEKDASGK [YOR098C/NUP1] | 3.45 ± 0.18 | 3.37 ± 0.15 | 3.49 ± 0.097 | 3.37 ± 0.1
DQLLTDLIETSFTCFAQ [NUT1] | 2.56 ± 0.093 | 1.9 ± 0.076 | 1.88 ± 0.11 | 2.91 ± 0.074
DQYIQKQVQISHHLKAD [YGL172W/NUP49] | 2.78 ± 0.076 | 2.71 ± 0.092 | 2.6 ± 0.072 | 3.07 ± 0.057
DRAIRKTCQWYSEHLKP [DIS3] | 3.17 ± 0.089 | 3.1 ± 0.096 | 3.01 ± 0.07 | 3.3 ± 0.12
DRETALDFIGRRGTALG [RPB2] | 2.23 ± 0.072 | 2.07 ± 0.065 | 2.22 ± 0.059 | 2.14 ± 0.066
DRKDQDDRDHFGKKRLD [RPB2] | 3.27 ± 0.14 | 3.04 ± 0.12 | 3.28 ± 0.13 | 3.39 ± 0.086
DRKHVAALRTVKSLVDN [RPL9B] | – | 2.83 ± 0.22 | 2.83 ± 0.14 | –
DRKKDKNVKHSGNIQLD [RPL12A] | 3.31 ± 0.12 | 3.46 ± 0.17 | 3.38 ± 0.073 | 3.18 ± 0.096
DRKNRAPPQRPRFNRDN [RPS26B] | 1.87 ± 0.2 | 1.4 ± 0.15 | – | 3.04 ± 0.16
DRQCMIMDELLSSIAER [DIB1] | 2.7 ± 0.066 | 2.78 ± 0.053 | 2.88 ± 0.061 | 2.68 ± 0.052
DRSKLKKGVRVTLDITT [RPT4] | – | 2.87 ± 0.2 | 2.4 ± 0.089 | 2.57 ± 0.14
